Assay results from IntAct's records for PubMed 29039417.

B1: BBSome complex member BBS4 (Homo sapiens), Q96RK4 (parent)
chain: MAEERVATRTQFPVSTESQKPRQKKAPEFPILEKQNWLIHLHYIRKDYEACKAVIKEQLQETQGLCEYAIYVQALIFRLEGNIQESLELFQTCAVLSPQSADNLKQVARSLFLLGKHKAAIEVYNEAAKLNQKDWEISHNLGVCYIYLKQFNKAQDQLHNALNLNRHDLTYIMLGKIHLLEGDLDKAIEVYKKAVEFSPENTELLTTLGLLYLQLGIYQKAFEHLGNALTYDPTNYKAILAAGSMMQTHGDFDVALTKYRVVACAVPESPPLWNNIGMCFFGKKKYVAAISCLKRANYLAPFDWKILYNLGLVHLTMQQYASAFHFLSAAINFQPKMGELYMLLAVALTNLEDIENAKRAYAEAVHLDKCNPLVNLNYAVLLYNQGEKKNALAQYQEMEKKVSLLKDNSSLEFDSEMVEMAQKLGAALQVGEALVWTKPVKDPKSKHQTTSTSKPASFQQPLGSNQALGQAMSSAAAYRTLPSGAGGTSQFTKPPSLPLEPEPAVESSPTETSEQIREK
partner: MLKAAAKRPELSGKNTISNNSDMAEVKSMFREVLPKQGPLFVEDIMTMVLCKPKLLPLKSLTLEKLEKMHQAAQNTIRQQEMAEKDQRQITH

Variants of: B1
Conditions: with bbip1_human BBIP1, A8MTZ0

Variant	effect of a mutation on the interaction
T316E	with no effect
T316K	with no effect
T316A	with no effect
L310S	disrupting interaction strength
L310E	with no effect
L310K	with no effect
L310W	disrupting interaction strength
L310A	with no effect
V313A	with no effect
V313E	with no effect
V313K	with no effect
L315K	with no effect
L315A	with no effect
L315S	disrupting interaction strength
L315E	with no effect
L307A	with no effect
L307P	disrupting interaction strength
L307E	with no effect
L307K	with no effect
Q318A	with no effect
H314P	disrupting interaction strength
H314A	with no effect
H314E	with no effect
H314K	with no effect
L312K	with no effect

Variant	effect of a mutation on the interaction
L312P	disrupting interaction strength
L312E	with no effect
L312T	disrupting interaction strength
L312A	with no effect
L312H	disrupting interaction strength
I306E	with no effect
I306T	disrupting interaction strength
I306K	with no effect
I306A	with no effect
I306P	disrupting interaction strength
M317A	with no effect
M317K	with no effect
M317E	with no effect
G311K	with no effect
G311D	disrupting interaction strength
G311E	with no effect
G311A	with no effect
Y308A	with no effect
Y308E	with no effect
Y308K	with no effect
N309A	with no effect
N309E	with no effect
N309D	disrupting interaction strength
N309K	with no effect
K305E	with no effect

Other lines, results leading:

effect of a mutation on the interaction	Variant
with no effect	Q319K
with no effect	Q319E
with no effect	Q319A
with no effect	F324A
disrupting interaction strength	F324P
with no effect	F324K
with no effect	F324E
with no effect	A321E
with no effect	A321K
with no effect	L327E
disrupting interaction strength	L327H
with no effect	L327A
with no effect	L327K
with no effect	Q318K
with no effect	Q318E
with no effect	Y320A
with no effect	Y320E

effect of a mutation on the interaction	Variant
disrupting interaction strength	Y320C
with no effect	Y320K
with no effect	F326K
with no effect	F326A
disrupting interaction strength	F326L
disrupting interaction strength	F326S
with no effect	F326E
with no effect	S322A
with no effect	S322E
with no effect	S322K
with no effect	H325E
with no effect	H325K
with no effect	H325A
disrupting interaction strength	A323V
with no effect	A323E
disrupting interaction strength	A323T
with no effect	A323K
